Laboratory results taken from patent publication US9402900B2, “Methods of modulating adrenomedullin by administering an anti-adrenomedullin (ADM) antibody” (ADRENOMED AG, priority 2011, dated 2016).

How the values were obtained:
hADM = molecular target: T1, hADM (Homo sapiens, UniProt P35318); assay: hADM sandwich luminescence immunoassay, dose/signal curve in presence of antibody; settings: 100 μg/mL antibody
T1 construct: comprises the amino acids 95 to 146 of pre-proADM; purchased BACHEM AG, Switzerland
T1 sequence (P35318 95-146): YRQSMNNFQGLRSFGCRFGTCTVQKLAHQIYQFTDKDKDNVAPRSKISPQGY
Description: The assay was calibrated, using dilutions of hADM
Unbound tracer was removed by washing 5 times (each 1 ml) with washing solution (20 mM PBS, pH 7.4, 0.1% Triton X-100).
Tube-Bound Chemiluminescence was Measured by Using the LB 953

[1] = molecular target: T2, Human ADM 1-52 bioactivity at human recombinant adrenomedullin receptor (CRLR+RAMP3) in CHO-K1 cells (Homo sapiens, UniProt P35318); assay: Human recombinant Adrenomedullin receptor cAMP functional assay (Adrenomedullin Bioassay), human ADM as agonist; type: cell-based; settings: in the presence of 5.63 nM Human ADM 1-52; antibody up to 100 μg/ml
T2 construct: comprises the amino acids 95 to 146 of pre-proADM; FAST-027C (receptor cell line); host or cells: CHO-K1 cells transfected with human CRLR+RAMP3
T2 sequence (P35318 95-146): T1 sequence (P35318 95-146)
Description: The effect of selected ADM-antibodies on ADM-bioactivity was tested in an human recombinant Adrenomedullin receptor cAMP functional assay (Adrenomedullin Bioassay).
Testing of Antibodies Targeting Human or Mouse Adrenomedullin in Human Recombinant Adrenomedullin Receptor cAMP Functional Assay (Adrenomedullin Bioassay)
Receptor: Adrenomedullin (CRLR+RAMP3)
Receptor Accession Number Cell line: CRLR: U17473; RAMP3: AJ001016
Dose response curves were performed in parallel with the reference agonists (hADM or mADM).
For antagonist testing, 6 μl of the reference agonist (human (5.63 nM) or mouse (0.67 nM) adrenomedullin) was mixed with 6 μl of the test samples at different antagonist dilutions; or with 6 μl buffer. After incubation for 60 min at room temperature, 12 μl of cells (2,500 cells/well) were added. The plates were incubated for 30 min at room temperature.
The anti-h-ADM antibodies (NT-H, MR-H, CT-H) were tested for antagonist activity in human recombinant adrenomedullin receptor (FAST-027C) cAMP functional assay in the presence of 5.63 nM Human ADM 1-52, at the following final antibody concentrations: 100 μg/ml, 20 μg/ml, 4 μg/ml, 0.8 μg/ml, 0.16 μg/ml.

B1: NT-H: mouse monoclonal antibody raised against human ADM region 1-21 (SEQ ID: 15) (antibody, V domains shown)
VH: QVQLQQSGAELMKPGASVKISCKATGYTFSRYWIEWVKQRPGHGLEWIGEILPGSGSTNYNEKFKGKATITADTSSNTAYMQLSSLTSEDSAVYYCTEGYEYDGFDYWGQGTTLTVSS
VL: DVLLSQTPLSLPVSLGDQATISCRSSQSIVYSNGNTYLEWYLQKPGQSPKLLIYRVSNRFSGVPDRFSGSGSGTDFTLKISRVEAEDLGVYYCFQGSHIPYTFGGGTKLEIK
Effect on the hADM immunoassay (dose/signal curve) (hADM): did not affect | Maximal inhibition of ADM bioactivity (ADM-Bioassay) (%) [1]: 38%
